Values quoted from earlier work, collected in patent US20250332099A1, “PROCESS FOR FORMULATING COMPOSITIONS COMPRISING GLUCAGON-LIKE-PEPTIDE-2 (GLP-2) ANALOGUES” (ZEALAND PHARMA A/S, priority 2021, published 2025).

Molecule	half-life in humans	half-life (compared with seven minutes for native GLP-2)
Hy-His-Ala-Asp-Gly-Ser-Phe-Ser-Asp-Glu-Met-Asn-Thr-Ile-Leu-Asp-Asn-Leu-Ala-Ala-Arg-Asp-Phe-Ile-Asn-Trp-Leu-Ile-Gln-Thr-Lys-Ile-Thr-Asp-OH [GLP-2 [1-33]]	around 7 minutes	–
CC[C@H](C)[C@H](NC(=O)[C@H](Cc1ccccc1)NC(=O)[C@H](CC(=O)O)NC(=O)[C@H](CCCNC(=N)N)NC(=O)[C@H](C)NC(=O)[C@H](C)NC(=O)[C@H](CC(C)C)NC(=O)[C@H](CC(N)=O)NC(=O)[C@H](CC(=O)O)NC(=O)[C@H](CC(C)C)NC(=O)[C@@H](NC(=O)[C@@H](NC(=O)[C@H](CC(N)=O)NC(=O)[C@H](CCSC)NC(=O)[C@H](CCC(=O)O)NC(=O)[C@H](CC(=O)O)NC(=O)[C@H](CO)NC(=O)[C@H](Cc1ccccc1)NC(=O)[C@H](CO)NC(=O)CNC(=O)[C@H](CC(=O)O)NC(=O)CNC(=O)[C@@H](N)Cc1c[nH]cn1)[C@@H](C)O)[C@@H](C)CC)C(=O)N[C@@H](CC(N)=O)C(=O)N[C@@H](Cc1c[nH]c2ccccc12)C(=O)N[C@@H](CC(C)C)C(=O)N[C@H](C(=O)N[C@@H](CCC(N)=O)C(=O)N[C@H](C(=O)N[C@@H](CCCCN)C(=O)N[C@H](C(=O)N[C@H](C(=O)N[C@@H](CC(=O)O)C(=O)O)[C@@H](C)O)[C@@H](C)CC)[C@@H](C)O)[C@@H](C)CC [teduglutide]	–	about two
GLP-2 [3-33]: truncated GLP-2 [3-33] (DGSFSDEMNTILDNLAARDFINWLIQTKITD; Glucagon-like peptide 2; UniProt P01275 148-178, looked up, fragment)	27 min	–
